Positions count from the first letter of the chain named. Blank lines part the entries; values can stand above or below the binder they belong to.
Legend:
[1] = target: T1, FGFR4 (acro) (UniProt P22455 22-369); assay: ELISA
T1 sequence (looked up): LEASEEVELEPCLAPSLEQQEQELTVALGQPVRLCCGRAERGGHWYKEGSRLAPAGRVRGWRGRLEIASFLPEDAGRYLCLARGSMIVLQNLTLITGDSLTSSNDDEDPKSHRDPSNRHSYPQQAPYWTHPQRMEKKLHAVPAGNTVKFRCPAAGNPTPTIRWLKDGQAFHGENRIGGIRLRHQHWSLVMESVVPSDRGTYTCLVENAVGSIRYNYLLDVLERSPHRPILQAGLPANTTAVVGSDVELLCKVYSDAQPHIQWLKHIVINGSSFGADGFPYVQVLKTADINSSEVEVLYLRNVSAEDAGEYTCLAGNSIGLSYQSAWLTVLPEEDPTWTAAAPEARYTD

[2] = target: T2, FGFR2c (acro) (UniProt P21802 22-377); assay: ELISA
T2 sequence (P21802 22-377): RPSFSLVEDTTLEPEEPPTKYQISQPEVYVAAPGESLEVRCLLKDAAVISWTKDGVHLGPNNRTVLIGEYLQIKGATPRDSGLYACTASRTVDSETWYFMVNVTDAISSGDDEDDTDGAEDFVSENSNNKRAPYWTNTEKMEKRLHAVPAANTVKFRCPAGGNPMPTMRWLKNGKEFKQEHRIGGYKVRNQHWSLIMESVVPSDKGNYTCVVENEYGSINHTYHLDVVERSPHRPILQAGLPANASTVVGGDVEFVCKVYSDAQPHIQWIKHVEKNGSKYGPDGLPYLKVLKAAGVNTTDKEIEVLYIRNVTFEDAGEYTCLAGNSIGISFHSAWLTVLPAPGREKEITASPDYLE

[3] = target: T2, FGFR2c (acro); assay: ELISA, antibody 10 µg/mL
[4] = target: T3, FGFR2b on KATO III cells (human, UniProt P21802-3 22-822); assay: flow cytometry, KATO III cells
T3 construct: whole, on cells; also called KATO III cells that overexpress FGFR2b
T3 sequence (P21802 other isoform, or with tags, fused parts or gaps): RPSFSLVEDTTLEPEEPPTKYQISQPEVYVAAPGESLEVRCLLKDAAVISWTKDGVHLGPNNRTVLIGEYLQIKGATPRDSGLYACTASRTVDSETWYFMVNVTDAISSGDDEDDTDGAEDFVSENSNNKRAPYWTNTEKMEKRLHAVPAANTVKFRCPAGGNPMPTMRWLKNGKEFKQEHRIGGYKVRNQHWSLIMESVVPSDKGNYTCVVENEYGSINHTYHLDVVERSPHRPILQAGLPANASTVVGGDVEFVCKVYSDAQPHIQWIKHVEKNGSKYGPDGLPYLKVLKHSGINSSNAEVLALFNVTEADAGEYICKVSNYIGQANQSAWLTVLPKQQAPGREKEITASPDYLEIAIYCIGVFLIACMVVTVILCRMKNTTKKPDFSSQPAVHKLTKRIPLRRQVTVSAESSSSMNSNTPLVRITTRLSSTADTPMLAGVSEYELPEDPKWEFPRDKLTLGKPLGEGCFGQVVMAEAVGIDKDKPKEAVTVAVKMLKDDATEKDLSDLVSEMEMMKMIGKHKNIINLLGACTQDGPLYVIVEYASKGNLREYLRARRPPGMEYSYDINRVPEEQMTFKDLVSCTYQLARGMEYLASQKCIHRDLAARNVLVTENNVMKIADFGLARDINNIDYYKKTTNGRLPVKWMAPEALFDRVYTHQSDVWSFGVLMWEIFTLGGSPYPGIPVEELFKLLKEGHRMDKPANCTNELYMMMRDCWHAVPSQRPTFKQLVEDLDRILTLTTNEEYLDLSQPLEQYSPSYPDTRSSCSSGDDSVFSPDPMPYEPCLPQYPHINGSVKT

[5] = target: T4, human FGFR2b (Kaixia Biotechnology, catalog number FGR-HM1BB) (human, UniProt P21802-3 22-378); assay: BLI, antibody on AHC2 sensor
T4 construct: extracellular domain; bought; also called hFGFR2b; human FGFR2b protein
T4 sequence (P21802 other isoform, or with tags, fused parts or gaps): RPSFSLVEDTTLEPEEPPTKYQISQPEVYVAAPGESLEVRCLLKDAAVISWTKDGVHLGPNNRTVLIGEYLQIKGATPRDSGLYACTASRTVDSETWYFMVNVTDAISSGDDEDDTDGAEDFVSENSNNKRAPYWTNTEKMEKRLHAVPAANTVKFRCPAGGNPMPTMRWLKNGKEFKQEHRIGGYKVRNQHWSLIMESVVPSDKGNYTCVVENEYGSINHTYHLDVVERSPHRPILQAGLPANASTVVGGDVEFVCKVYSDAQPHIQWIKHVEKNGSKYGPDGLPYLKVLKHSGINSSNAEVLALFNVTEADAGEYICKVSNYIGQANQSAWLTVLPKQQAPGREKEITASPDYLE

[6] = target: T1, FGFR4 (acro); assay: ELISA, antibody 10 µg/mL
[7] = target: T5, recombinant cynomolgus monkey FGFR2b (cynomolgus monkey); assay: ELISA, antibody 1ug/mL
T5 construct: extracellular domain; bought; also called cynomolgus macaque FGFR2b

[8] = target: T4, human FGFR2b (Kaixia Biotechnology, …); assay: ELISA, FGFR2b coated at 1 µg/ml

B1: 3A3 scFv-Fc (Fc fusion)
chain: QVQLQQSGAELVKPGASVKMSCKASGYTFTTYNIHWVRQTPGQGLEWIGLIYPDNGDTSYNQKFKAKATLTADKSSSTAYMHLSSLTSEDSAVYYCARGGFDYWGQGTTLTVSSGGGGSGGGGSGGGGSDIVMTQSHKFMSTSVGDRVSITCKASQDVNTDVSWYQQKPGQSPKLLIYSASYRYTGVPTRFTGSGSGTDFTFTISGVQAEDLADYYCQQHYNTPYTFGGGTRLEIKESKYGPPCPPCPAPEAAGGPSVFLFPPKPKDTLMISRTPEVTCVVVDVSQEDPEVQFNWYVDGVEVHNAKTKPREEQFNSTYRVVSVLTVLHQDWLNGKEYKCKVSNKGLPSSIEKTISKAKGQPREPQVYTLPPSQEEMTKNQVSLTCLVKGFYPSDIAVEWESNGQPENNYKTTPPVLDSDGSFFLYSKLTVDKSRWQEGNVFSCSVMHEALHNHYTQKSLSLSLG
notes: scFv-Fc dimer
- binding result [1]: no binding (tested: 10 µg/mL)
- binding result [2]: no binding (tested: 10 µg/mL)
- OD (450 nm) value [3]: 0.137
- EC50 [4]: 0.236 µg/mL
- Kd [5]: 3.71 nM
- koff [5]: 0.00133 s⁻¹
- kon [5]: 359000 M⁻¹ s⁻¹
- OD (450 nm) value [6]: 0.136
- OD (450 nm) value [7]: 3.2
- EC50 [8]: 0.0216 µg/mL

B2: 2B2 scFv-Fc (Fc fusion)
chain: QLQLQQSGAELVKPGASVKMSCKASGYTFASYNLHWVKQTPGQGLEWIGLIYPENGDTSYNQKFKDKATLTADKSSTTAYIQLSSLASEDSAVYFCARGGFDYWGQGTTLTVSSGGGGSGGGGSGGGGSDIVMTQSQKFMSTSVGDRVSVTCKASQNVGTNVAWYQQKPGQSPKALIYSASYRYSGVPDRFTGSGSGTDYTLTISSVQAEDLALYYCQQHYSTPYTFGGGTKLELKESKYGPPCPPCPAPEAAGGPSVFLFPPKPKDTLMISRTPEVTCVVVDVSQEDPEVQFNWYVDGVEVHNAKTKPREEQFNSTYRVVSVLTVLHQDWLNGKEYKCKVSNKGLPSSIEKTISKAKGQPREPQVYTLPPSQEEMTKNQVSLTCLVKGFYPSDIAVEWESNGQPENNYKTTPPVLDSDGSFFLYSKLTVDKSRWQEGNVFSCSVMHEALHNHYTQKSLSLSLG
notes: scFv-Fc dimer
- binding result [1]: no binding (tested: 10 µg/mL)
- binding result [2]: no binding (tested: 10 µg/mL)
- OD (450 nm) value [3]: 0.113
- EC50 [4]: 0.233 µg/mL
- Kd [5]: 6.18 nM
- koff [5]: 0.00286 s⁻¹
- kon [5]: 462000 M⁻¹ s⁻¹
- OD (450 nm) value [6]: 0.093
- OD (450 nm) value [7]: 3.19
- EC50 [8]: 0.0216 µg/mL

B3: 3B7 scFv-Fc (Fc fusion)
chain: EVQLQQSGAELVKPGASVKMSCKASGYTFRYYNMHWVKRTPGQGLEWIGLIYPDNGDTSYNQKFKGKATLTADTSSSTAYMQLSSLTSEDSAVYYCARGGFDYWGQGTTLTVSSGGGGSGGGGSGGGGSDIQMTQSPASLSASVGETVTITCGASENIYGALNWYQRKQGKSPQLLIYGATNLADGMSSRFSGSGSGRQYSLKISSLHPDDVATYYCQNVLSTPYTFGGGTKLELKESKYGPPCPPCPAPEAAGGPSVFLFPPKPKDTLMISRTPEVTCVVVDVSQEDPEVQFNWYVDGVEVHNAKTKPREEQFNSTYRVVSVLTVLHQDWLNGKEYKCKVSNKGLPSSIEKTISKAKGQPREPQVYTLPPSQEEMTKNQVSLTCLVKGFYPSDIAVEWESNGQPENNYKTTPPVLDSDGSFFLYSKLTVDKSRWQEGNVFSCSVMHEALHNHYTQKSLSLSLG
notes: scFv-Fc dimer
- binding result [1]: no binding (tested: 10 µg/mL)
- binding result [2]: no binding (tested: 10 µg/mL)
- OD (450 nm) value [3]: 0.089
- EC50 [4]: 0.117 µg/mL
- Kd [5]: 7.6 nM
- koff [5]: 0.00203 s⁻¹
- kon [5]: 267000 M⁻¹ s⁻¹
- OD (450 nm) value [6]: 0.116
- OD (450 nm) value [7]: 3.12
- EC50 [8]: 0.0147 µg/mL

B4: 3F5 scFv-Fc (Fc fusion)
chain: B3 chain with V2I, F101L, Q132V, M133L, L235I
notes: scFv-Fc dimer
- binding result [1]: no binding (tested: 10 µg/mL)
- binding result [2]: no binding (tested: 10 µg/mL)
- OD (450 nm) value [3]: 0.111
- EC50 [4]: 0.105 µg/mL
- Kd [5]: 5.1 nM
- koff [5]: 0.00143 s⁻¹
- kon [5]: 281000 M⁻¹ s⁻¹
- OD (450 nm) value [6]: 0.145
- OD (450 nm) value [7]: 3.17
- EC50 [8]: 0.0159 µg/mL

B7: 3A12 scFv-Fc (Fc fusion)
chain: EVQLQQSGAELVKPGASVKMSCKASGYTFSFYNVHWVRQTPGQGLEWIGLIYPDNGDTSYNQKFKAKATLTADKSSSAAYMQLSSLTSEDSAVYYCARGGFDYWGQGTSLTVSSGGGGSGGGGSGGGGSDIVMTQSHKFMSTSVGDRVNITCKASQDVSTAVAWYQQKPGQSPKLLIYSASYRYSGVPDRFTGSGSGTDFTFTISSVQAEDLAVYYCQQHYSTPYTFGGGTKLEMKESKYGPPCPPCPAPEAAGGPSVFLFPPKPKDTLMISRTPEVTCVVVDVSQEDPEVQFNWYVDGVEVHNAKTKPREEQFNSTYRVVSVLTVLHQDWLNGKEYKCKVSNKGLPSSIEKTISKAKGQPREPQVYTLPPSQEEMTKNQVSLTCLVKGFYPSDIAVEWESNGQPENNYKTTPPVLDSDGSFFLYSKLTVDKSRWQEGNVFSCSVMHEALHNHYTQKSLSLSLG
notes: scFv-Fc dimer
- binding result [1]: no binding (tested: 10 µg/mL)
- binding result [2]: no binding (tested: 10 µg/mL)
- OD (450 nm) value [3]: 0.098
- EC50 [4]: 0.292 µg/mL
- Kd [5]: 2.82 nM
- koff [5]: 0.000662 s⁻¹
- kon [5]: 235000 M⁻¹ s⁻¹
- OD (450 nm) value [6]: 0.106
- OD (450 nm) value [7]: 3.27
- EC50 [8]: 0.0128 µg/mL

Continued by falling Kd [5], values first:

- binding result [1]: no binding (tested: 10 µg/mL)
- binding result [2]: no binding (tested: 10 µg/mL)
- OD (450 nm) value [3]: 0.106
- EC50 [4]: 0.159 µg/mL
- Kd [5]: 7.62 nM
- koff [5]: 0.00231 s⁻¹
- kon [5]: 303000 M⁻¹ s⁻¹
- OD (450 nm) value [6]: 0.123
- OD (450 nm) value [7]: 3.22
- EC50 [8]: 0.00818 µg/mL
B6: 3F10 scFv-Fc (Fc fusion)
chain: B3 chain with R30S, Y31F, M34I, K38R, R39Q, G66A, T74K, I131V, Q132L, L235I
notes: scFv-Fc dimer

- binding result [1]: no binding (tested: 10 µg/mL)
- binding result [2]: no binding (tested: 10 µg/mL)
- OD (450 nm) value [3]: 0.098
- EC50 [4]: 0.195 µg/mL
- Kd [5]: 6.67 nM
- koff [5]: 0.00179 s⁻¹
- kon [5]: 268000 M⁻¹ s⁻¹
- OD (450 nm) value [6]: 0.103
- OD (450 nm) value [7]: 3
- EC50 [8]: 0.0276 µg/mL
B9: 2B1 scFv-Fc (Fc fusion)
chain: EVQLQQSGAELVKPGASVKMSCKASGYTFASYNLHWVKQTPGQGLEWIGLIYPENGDTSYNQKFKGKATLTADKSSSTAYIQLSSLTSEDSAVYFCARGGFDYWGQGTSLTVSSGGGGSGGGGSGGGGSDIQMIQSPASLSVSVGETVTITCRASENIYSNLAWYQQKQGKSPQLLVYNAKTLADGVPSRFSGSGSGTQYSLKINSLQPEDFGSYYCQHFWSTPYTFGGGTKLEIKESKYGPPCPPCPAPEAAGGPSVFLFPPKPKDTLMISRTPEVTCVVVDVSQEDPEVQFNWYVDGVEVHNAKTKPREEQFNSTYRVVSVLTVLHQDWLNGKEYKCKVSNKGLPSSIEKTISKAKGQPREPQVYTLPPSQEEMTKNQVSLTCLVKGFYPSDIAVEWESNGQPENNYKTTPPVLDSDGSFFLYSKLTVDKSRWQEGNVFSCSVMHEALHNHYTQKSLSLSLG
notes: scFv-Fc dimer

- binding result [1]: no binding (tested: 10 µg/mL)
- binding result [2]: no binding (tested: 10 µg/mL)
- OD (450 nm) value [3]: 0.091
- EC50 [4]: 0.167 µg/mL
- Kd [5]: 4.51 nM
- koff [5]: 0.00208 s⁻¹
- kon [5]: 460000 M⁻¹ s⁻¹
- OD (450 nm) value [6]: 0.156
- OD (450 nm) value [7]: 3.17
- EC50 [8]: 0.0154 µg/mL
B8: 1D7 scFv-Fc (Fc fusion)
chain: QIQLQQSGAELVKPGASVKMSCKASGYTFRYYNMHWVKRTPGQGLEWIGLIYPDNGDTSYNQKFKGKATLTADTSSSTAYMQLSSLTSEDSAVYYCARGGLDYWGQGTSLTVSSGGGGSGGGGSGGGGSDIQMTQSPSSMSASLGDRITITCQATQDIVKNLNWYQQKPGKPPSFLIYYATELAEGVPSRFSGSGSGSDYSLTISNLESEDFADYYCLQFYEFPLTFGAGTKLELKESKYGPPCPPCPAPEAAGGPSVFLFPPKPKDTLMISRTPEVTCVVVDVSQEDPEVQFNWYVDGVEVHNAKTKPREEQFNSTYRVVSVLTVLHQDWLNGKEYKCKVSNKGLPSSIEKTISKAKGQPREPQVYTLPPSQEEMTKNQVSLTCLVKGFYPSDIAVEWESNGQPENNYKTTPPVLDSDGSFFLYSKLTVDKSRWQEGNVFSCSVMHEALHNHYTQKSLSLSLG
notes: scFv-Fc dimer

- binding result [1]: no binding (tested: 10 µg/mL)
- binding result [2]: no binding (tested: 10 µg/mL)
- OD (450 nm) value [3]: 0.118
- EC50 [4]: 0.253 µg/mL
- Kd [5]: 2.7 nM
- koff [5]: 0.000954 s⁻¹
- kon [5]: 353000 M⁻¹ s⁻¹
- OD (450 nm) value [6]: 0.139
- OD (450 nm) value [7]: 3.25
- EC50 [8]: 0.0147 µg/mL
B5: 3C9 scFv-Fc (Fc fusion)
chain: B3 chain with V2I, T28I, F101L, T134I, L235I
notes: scFv-Fc dimer
